Experimental findings from patent EP1591456A1 (Genentech Inc., dated 2005) are described below.

The assay addresses T1, recombinant human DAF (human, UniProt P08174 35-353, limits assumed).
T1 construct: also called recombinant human decay accelerating factor; CD55
T1 sequence (looked up): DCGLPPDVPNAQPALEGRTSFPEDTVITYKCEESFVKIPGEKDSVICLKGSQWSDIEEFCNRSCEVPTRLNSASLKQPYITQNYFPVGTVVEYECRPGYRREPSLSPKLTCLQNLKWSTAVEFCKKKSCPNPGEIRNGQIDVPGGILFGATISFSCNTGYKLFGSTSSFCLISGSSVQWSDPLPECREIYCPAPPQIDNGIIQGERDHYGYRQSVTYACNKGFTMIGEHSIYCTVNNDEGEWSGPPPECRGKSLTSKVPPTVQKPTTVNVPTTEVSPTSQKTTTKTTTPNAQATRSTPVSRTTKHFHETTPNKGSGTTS
The assay is described as follows: SPR (BIACORE 1000), recombinant human DAF on CM-5 chip, LU30 scFv 25-100 nM injected.

B1: LU30 scFv fragment (scFv, V domains shown)
VH: QVKLQESGGGLVQPGGSLKLSCAASGFTFSGYGMSWIRQTPDKRLEWVATINSGGSYTYYSDSVKGRFTISRDNVKNTLYLQMSSLKSEDTAMYYCARRNGTLYYYLMDYWGRGTLVTVSS
VL: QSVLTQPPSASGSPGQSVTISCTGTSSDVGGYNYVSWYQQHPGKAPKFMIYDVSKRPSGVSNRFSGSKSGNTASLTISGVQAEDEADYYCSSYTSASTVIFGGGTKLTVL
notes: Human scFv from a naive phage library (Vaughan et al.), secreted from E. coli and purified by its His tag; The full scFv is said to be under GenBank AF117206; also called clone LU30
Regarding B1, the Kd came out at 13 nM, the koff amounted to 0.0045 s⁻¹ and the kon is 340000 M⁻¹ s⁻¹.

A word on the Kd: it is the concentration at which binding is half-saturated. Broadly, the koff is the first-order rate constant of dissociation. By kon is commonly meant the rate constant with which the complex forms.
